Among the data in patent publication US20100015643A1 are MFI and Delta MFI values, retold here.

For experiment [1], the target named is TLR2 on human monocytes (human) (UniProt O60603). As to the kind of experiment: flow cytometry on monocytes of a patient's blood sample, 3 µg/mL PE-labeled control antibody. In general terms: A flow cytometer gives signals particle by particle.
The target is the same in experiment [2]. In words: flow cytometry on monocytes, Sample 1, antibody at 3 µg/mL.
Experiment [3] shares this target. As to the kind of experiment: flow cytometry on monocytes, Sample 2, instrument setting FL634.
The target is the same in experiment [4]. In words: flow cytometry on monocytes, Sample 1, instrument setting FL634.
Experiment [5] has the same target. As to the kind of experiment: flow cytometry on monocytes of a patient's blood sample, 3 µg/mL PE-labeled antibody.
The target is the same in experiment [6]. In words: flow cytometry on monocytes, Sample 3, antibody at 3 µg/mL.
Experiment [7] shares this target. In words: flow cytometry on monocytes, Sample 3, instrument setting FL534.
The target is the same in experiment [8]. As to the kind of experiment: flow cytometry on monocytes, Sample 2, instrument setting FL534.
The target is the same in experiment [9]. As to the kind of experiment: flow cytometry on monocytes, Sample 3, antibody at 1 µg/mL.
Experiment [10] shares this target. As to the kind of experiment: flow cytometry on monocytes, Sample 1, antibody at 1 µg/mL.
Experiment [11] shares this target. In words: flow cytometry on monocytes, Sample 2, antibody at 3 µg/mL.
For experiment [12] the target is unchanged. As to the kind of experiment: flow cytometry on monocytes, MFI of anti-TLR2 antibody minus MFI of control antibody.
Experiment [13] shares this target. As to the kind of experiment: flow cytometry on monocytes, Sample 2, antibody at 1 µg/mL.
Experiment [14] has the same target. In words: flow cytometry on monocytes, Sample 1, instrument setting FL534.
Experiment [15] has the same target. In words: flow cytometry on monocytes, Sample 3, instrument setting FL634.

UniProt O60603, sequence (O60603 21-784): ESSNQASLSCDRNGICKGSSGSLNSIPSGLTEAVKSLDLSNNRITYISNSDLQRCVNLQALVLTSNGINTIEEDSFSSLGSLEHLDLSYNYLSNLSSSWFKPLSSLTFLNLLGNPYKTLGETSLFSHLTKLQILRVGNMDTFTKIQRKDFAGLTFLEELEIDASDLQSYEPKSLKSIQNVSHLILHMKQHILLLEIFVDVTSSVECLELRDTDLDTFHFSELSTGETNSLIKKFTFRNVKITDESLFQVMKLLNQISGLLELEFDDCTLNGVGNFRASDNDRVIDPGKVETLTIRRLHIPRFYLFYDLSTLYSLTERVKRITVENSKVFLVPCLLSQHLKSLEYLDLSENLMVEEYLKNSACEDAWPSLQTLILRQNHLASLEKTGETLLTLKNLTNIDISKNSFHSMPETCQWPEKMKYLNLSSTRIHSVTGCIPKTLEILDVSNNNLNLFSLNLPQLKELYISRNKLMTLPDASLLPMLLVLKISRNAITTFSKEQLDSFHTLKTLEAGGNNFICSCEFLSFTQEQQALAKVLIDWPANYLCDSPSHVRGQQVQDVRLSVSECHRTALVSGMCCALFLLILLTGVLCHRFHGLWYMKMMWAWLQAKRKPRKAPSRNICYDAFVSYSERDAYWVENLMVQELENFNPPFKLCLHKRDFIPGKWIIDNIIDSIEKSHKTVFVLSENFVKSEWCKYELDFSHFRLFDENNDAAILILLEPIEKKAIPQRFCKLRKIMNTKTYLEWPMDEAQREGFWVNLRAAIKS

The substance “PE-labeled control (mouse IgG2a) antibody” had an MFI in experiment [1] of 11.7 MFI.
Turning to “PE-bound anti-TLR2 monoclonal antibody (clone name: T2.1, product of eBioscience)”, the Delta MFI in experiment [2] is 77.5 MFI; in experiment [3] it was 340 MFI; in experiment [4], 286 MFI; in [6], 68.7 MFI; in experiment [7] it was 68.7 MFI; in experiment [8], 88 MFI. Moreover, the Delta MFI in [9] came to 40.4 MFI; in experiment [10], 53.7 MFI; in experiment [11], 88 MFI; in experiment [12], 92.6 MFI; in experiment [13], 54.1 MFI; in experiment [14], 77.5 MFI. For the same substance, the Delta MFI in experiment [15] came to 273 MFI. In [5], this substance had an MFI of 104 MFI.
